Assay results taken from patent US12679878B2, “CRF2 receptor agonists and their use in therapy” (SANOFI, priority 2020, dated 2026).
Starred links: 1 amine or outer side, 2 acyl side, 3 side chain; linkers in the order of their positions; H or OH if unused. Non-standard residues stand in square brackets, D forms with d. Groups on a side chain read outwards from the residue. No end group written: not given here. *: point of attachment. C20 diacid = O=C(O)CCCCCCCCCCCCCCCCCCC(=O)*; C18 diacid = O=C(O)CCCCCCCCCCCCCCCCC(=O)*; γGlu = O=C(O)[C@H](CCC(=O)[*:2])N[*:1]; Palmitoyl = CCCCCCCCCCCCCCCC(=O)*; AEEA = NCCOCCOCC(=O)O; Aib = CC(C)(N)C(=O)O

Target: rat CRF2R α receptor (rat, UniProt P47866 20-411)
Assay: cell-based or functional assay

rat CRF2R α receptor, sequence (P47866 20-411): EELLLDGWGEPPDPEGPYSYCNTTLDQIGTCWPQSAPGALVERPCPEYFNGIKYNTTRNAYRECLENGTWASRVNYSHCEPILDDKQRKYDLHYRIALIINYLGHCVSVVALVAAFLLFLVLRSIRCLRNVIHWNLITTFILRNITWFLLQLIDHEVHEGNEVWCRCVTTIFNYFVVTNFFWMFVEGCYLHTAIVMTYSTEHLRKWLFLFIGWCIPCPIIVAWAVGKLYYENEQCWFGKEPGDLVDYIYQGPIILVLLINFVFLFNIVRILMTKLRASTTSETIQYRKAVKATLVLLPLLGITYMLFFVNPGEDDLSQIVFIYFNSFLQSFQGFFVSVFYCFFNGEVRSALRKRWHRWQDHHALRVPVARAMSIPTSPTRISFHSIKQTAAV

B1: peptide of SEQ ID NO: 184 (peptide)
peptide: IVLSLD[dV]PIKLK(C18 diacid)QILLKQERQKKQRQQAEKNKQILAQV-NH2
modifications: N-terminus assumed
SMILES: CC[C@H](C)[C@H](N)C(=O)N[C@H](C(=O)N[C@@H](CC(C)C)C(=O)N[C@@H](CO)C(=O)N[C@@H](CC(C)C)C(=O)N[C@@H](CC(=O)O)C(=O)N[C@@H](C(=O)N1CCC[C@H]1C(=O)N[C@H](C(=O)N[C@@H](CCCCN)C(=O)N[C@@H](CC(C)C)C(=O)N[C@@H](CCCCNC(=O)CCCCCCCCCCCCCCCCC(=O)O)C(=O)N[C@@H](CCC(N)=O)C(=O)N[C@H](C(=O)N[C@@H](CC(C)C)C(=O)N[C@@H](CC(C)C)C(=O)N[C@@H](CCCCN)C(=O)N[C@@H](CCC(N)=O)C(=O)N[C@@H](CCC(=O)O)C(=O)N[C@@H](CCCNC(=N)N)C(=O)N[C@@H](CCC(N)=O)C(=O)N[C@@H](CCCCN)C(=O)N[C@@H](CCCCN)C(=O)N[C@@H](CCC(N)=O)C(=O)N[C@@H](CCCNC(=N)N)C(=O)N[C@@H](CCC(N)=O)C(=O)N[C@@H](CCC(N)=O)C(=O)N[C@@H](C)C(=O)N[C@@H](CCC(=O)O)C(=O)N[C@@H](CCCCN)C(=O)N[C@@H](CC(N)=O)C(=O)N[C@@H](CCCCN)C(=O)N[C@@H](CCC(N)=O)C(=O)N[C@H](C(=O)N[C@@H](CC(C)C)C(=O)N[C@@H](C)C(=O)N[C@@H](CCC(N)=O)C(=O)N[C@H](C(N)=O)C(C)C)[C@@H](C)CC)[C@@H](C)CC)[C@@H](C)CC)C(C)C)C(C)C
- EC50 [nM], 0% HSA (cAMP, A7R5 cells): 0.42 nM

B2: peptide of SEQ ID NO: 174 (peptide)
peptide: IVLSLD[dV]PIKLK([AEEA-AEEA-γGlu-γGlu-C18 diacid])QILLKQARQK[Aib]QRAQAEKNKRILERV-NH2
modifications: N-terminus assumed
SMILES: CC[C@H](C)[C@H](N)C(=O)N[C@H](C(=O)N[C@@H](CC(C)C)C(=O)N[C@@H](CO)C(=O)N[C@@H](CC(C)C)C(=O)N[C@@H](CC(=O)O)C(=O)N[C@@H](C(=O)N1CCC[C@H]1C(=O)N[C@H](C(=O)N[C@@H](CCCCN)C(=O)N[C@@H](CC(C)C)C(=O)N[C@@H](CCCCNC(=O)COCCOCCNC(=O)COCCOCCNC(=O)CC[C@H](NC(=O)CC[C@H](NC(=O)CCCCCCCCCCCCCCCCC(=O)O)C(=O)O)C(=O)O)C(=O)N[C@@H](CCC(N)=O)C(=O)N[C@H](C(=O)N[C@@H](CC(C)C)C(=O)N[C@@H](CC(C)C)C(=O)N[C@@H](CCCCN)C(=O)N[C@@H](CCC(N)=O)C(=O)N[C@@H](C)C(=O)N[C@@H](CCCNC(=N)N)C(=O)N[C@@H](CCC(N)=O)C(=O)N[C@@H](CCCCN)C(=O)NC(C)(C)C(=O)N[C@@H](CCC(N)=O)C(=O)N[C@@H](CCCNC(=N)N)C(=O)N[C@@H](C)C(=O)N[C@@H](CCC(N)=O)C(=O)N[C@@H](C)C(=O)N[C@@H](CCC(=O)O)C(=O)N[C@@H](CCCCN)C(=O)N[C@@H](CC(N)=O)C(=O)N[C@@H](CCCCN)C(=O)N[C@@H](CCCNC(=N)N)C(=O)N[C@H](C(=O)N[C@@H](CC(C)C)C(=O)N[C@@H](CCC(=O)O)C(=O)N[C@@H](CCCNC(=N)N)C(=O)N[C@H](C(N)=O)C(C)C)[C@@H](C)CC)[C@@H](C)CC)[C@@H](C)CC)C(C)C)C(C)C
- EC50 [nM], 0% HSA (cAMP, A7R5 cells): 0.42 nM

B3: peptide of SEQ ID NO: 183 (peptide)
peptide: IVLSLD[dV]PIKLK(C18 diacid)QILLKQARQK[Aib]QRAQAEKNKRILERV-NH2
modifications: N-terminus assumed
SMILES: CC[C@H](C)[C@H](N)C(=O)N[C@H](C(=O)N[C@@H](CC(C)C)C(=O)N[C@@H](CO)C(=O)N[C@@H](CC(C)C)C(=O)N[C@@H](CC(=O)O)C(=O)N[C@@H](C(=O)N1CCC[C@H]1C(=O)N[C@H](C(=O)N[C@@H](CCCCN)C(=O)N[C@@H](CC(C)C)C(=O)N[C@@H](CCCCNC(=O)CCCCCCCCCCCCCCCCC(=O)O)C(=O)N[C@@H](CCC(N)=O)C(=O)N[C@H](C(=O)N[C@@H](CC(C)C)C(=O)N[C@@H](CC(C)C)C(=O)N[C@@H](CCCCN)C(=O)N[C@@H](CCC(N)=O)C(=O)N[C@@H](C)C(=O)N[C@@H](CCCNC(=N)N)C(=O)N[C@@H](CCC(N)=O)C(=O)N[C@@H](CCCCN)C(=O)NC(C)(C)C(=O)N[C@@H](CCC(N)=O)C(=O)N[C@@H](CCCNC(=N)N)C(=O)N[C@@H](C)C(=O)N[C@@H](CCC(N)=O)C(=O)N[C@@H](C)C(=O)N[C@@H](CCC(=O)O)C(=O)N[C@@H](CCCCN)C(=O)N[C@@H](CC(N)=O)C(=O)N[C@@H](CCCCN)C(=O)N[C@@H](CCCNC(=N)N)C(=O)N[C@H](C(=O)N[C@@H](CC(C)C)C(=O)N[C@@H](CCC(=O)O)C(=O)N[C@@H](CCCNC(=N)N)C(=O)N[C@H](C(N)=O)C(C)C)[C@@H](C)CC)[C@@H](C)CC)[C@@H](C)CC)C(C)C)C(C)C
- EC50 [nM], 0% HSA (cAMP, A7R5 cells): 1.12 nM

B4: peptide of SEQ ID NO: 225 (peptide)
peptide: IVLSLD[dV]PTKLK([γGlu-Palmitoyl])QKLLKQERQRKERE[Aib]AEKNKRILERV-NH2
- EC50 [nM], 0% HSA (cAMP, A7R5 cells): 0.12 nM

B5: peptide of SEQ ID NO: 226 (peptide)
peptide: IVLSLD[dV]PIGLK([γGlu-Palmitoyl])QKLLKQQRQRKERQQAEKNKRILERV-NH2
modifications: N-terminus assumed
SMILES: CCCCCCCCCCCCCCCC(=O)N[C@@H](CCC(=O)NCCCC[C@H](NC(=O)[C@H](CC(C)C)NC(=O)CNC(=O)[C@@H](NC(=O)[C@@H]1CCCN1C(=O)[C@H](NC(=O)[C@H](CC(=O)O)NC(=O)[C@H](CC(C)C)NC(=O)[C@H](CO)NC(=O)[C@H](CC(C)C)NC(=O)[C@@H](NC(=O)[C@@H](N)[C@@H](C)CC)C(C)C)C(C)C)[C@@H](C)CC)C(=O)N[C@@H](CCC(N)=O)C(=O)N[C@@H](CCCCN)C(=O)N[C@@H](CC(C)C)C(=O)N[C@@H](CC(C)C)C(=O)N[C@@H](CCCCN)C(=O)N[C@@H](CCC(N)=O)C(=O)N[C@@H](CCC(N)=O)C(=O)N[C@@H](CCCNC(=N)N)C(=O)N[C@@H](CCC(N)=O)C(=O)N[C@@H](CCCNC(=N)N)C(=O)N[C@@H](CCCCN)C(=O)N[C@@H](CCC(=O)O)C(=O)N[C@@H](CCCNC(=N)N)C(=O)N[C@@H](CCC(N)=O)C(=O)N[C@@H](CCC(N)=O)C(=O)N[C@@H](C)C(=O)N[C@@H](CCC(=O)O)C(=O)N[C@@H](CCCCN)C(=O)N[C@@H](CC(N)=O)C(=O)N[C@@H](CCCCN)C(=O)N[C@@H](CCCNC(=N)N)C(=O)N[C@H](C(=O)N[C@@H](CC(C)C)C(=O)N[C@@H](CCC(=O)O)C(=O)N[C@@H](CCCNC(=N)N)C(=O)N[C@H](C(N)=O)C(C)C)[C@@H](C)CC)C(=O)O
- EC50 [nM], 0% HSA (cAMP, A7R5 cells): 0.04 nM

B6: peptide of SEQ ID NO: 173 (peptide)
peptide: IVLSLD[dV]PIKLK([AEEA-AEEA-γGlu-C20 diacid])QILLKQERQK[Aib]QREQAEKNKQILAQV-NH2
modifications: N-terminus assumed
SMILES: CC[C@H](C)[C@H](N)C(=O)N[C@H](C(=O)N[C@@H](CC(C)C)C(=O)N[C@@H](CO)C(=O)N[C@@H](CC(C)C)C(=O)N[C@@H](CC(=O)O)C(=O)N[C@@H](C(=O)N1CCC[C@H]1C(=O)N[C@H](C(=O)N[C@@H](CCCCN)C(=O)N[C@@H](CC(C)C)C(=O)N[C@@H](CCCCNC(=O)COCCOCCNC(=O)COCCOCCNC(=O)CC[C@H](NC(=O)CCCCCCCCCCCCCCCCCCC(=O)O)C(=O)O)C(=O)N[C@@H](CCC(N)=O)C(=O)N[C@H](C(=O)N[C@@H](CC(C)C)C(=O)N[C@@H](CC(C)C)C(=O)N[C@@H](CCCCN)C(=O)N[C@@H](CCC(N)=O)C(=O)N[C@@H](CCC(=O)O)C(=O)N[C@@H](CCCNC(=N)N)C(=O)N[C@@H](CCC(N)=O)C(=O)N[C@@H](CCCCN)C(=O)NC(C)(C)C(=O)N[C@@H](CCC(N)=O)C(=O)N[C@@H](CCCNC(=N)N)C(=O)N[C@@H](CCC(=O)O)C(=O)N[C@@H](CCC(N)=O)C(=O)N[C@@H](C)C(=O)N[C@@H](CCC(=O)O)C(=O)N[C@@H](CCCCN)C(=O)N[C@@H](CC(N)=O)C(=O)N[C@@H](CCCCN)C(=O)N[C@@H](CCC(N)=O)C(=O)N[C@H](C(=O)N[C@@H](CC(C)C)C(=O)N[C@@H](C)C(=O)N[C@@H](CCC(N)=O)C(=O)N[C@H](C(N)=O)C(C)C)[C@@H](C)CC)[C@@H](C)CC)[C@@H](C)CC)C(C)C)C(C)C
- EC50 [nM], 0% HSA (cAMP, A7R5 cells): 0.83 nM

B7: peptide of SEQ ID NO: 182 (peptide)
peptide: IVLSLD[dV]PIKLK(C18 diacid)QILLKQERQK[Aib]QREQAEKNKQILAQV-NH2
modifications: N-terminus assumed
SMILES: CC[C@H](C)[C@H](N)C(=O)N[C@H](C(=O)N[C@@H](CC(C)C)C(=O)N[C@@H](CO)C(=O)N[C@@H](CC(C)C)C(=O)N[C@@H](CC(=O)O)C(=O)N[C@@H](C(=O)N1CCC[C@H]1C(=O)N[C@H](C(=O)N[C@@H](CCCCN)C(=O)N[C@@H](CC(C)C)C(=O)N[C@@H](CCCCNC(=O)CCCCCCCCCCCCCCCCC(=O)O)C(=O)N[C@@H](CCC(N)=O)C(=O)N[C@H](C(=O)N[C@@H](CC(C)C)C(=O)N[C@@H](CC(C)C)C(=O)N[C@@H](CCCCN)C(=O)N[C@@H](CCC(N)=O)C(=O)N[C@@H](CCC(=O)O)C(=O)N[C@@H](CCCNC(=N)N)C(=O)N[C@@H](CCC(N)=O)C(=O)N[C@@H](CCCCN)C(=O)NC(C)(C)C(=O)N[C@@H](CCC(N)=O)C(=O)N[C@@H](CCCNC(=N)N)C(=O)N[C@@H](CCC(=O)O)C(=O)N[C@@H](CCC(N)=O)C(=O)N[C@@H](C)C(=O)N[C@@H](CCC(=O)O)C(=O)N[C@@H](CCCCN)C(=O)N[C@@H](CC(N)=O)C(=O)N[C@@H](CCCCN)C(=O)N[C@@H](CCC(N)=O)C(=O)N[C@H](C(=O)N[C@@H](CC(C)C)C(=O)N[C@@H](C)C(=O)N[C@@H](CCC(N)=O)C(=O)N[C@H](C(N)=O)C(C)C)[C@@H](C)CC)[C@@H](C)CC)[C@@H](C)CC)C(C)C)C(C)C
- EC50 [nM], 0% HSA (cAMP, A7R5 cells): 0.59 nM
